target: thymic stromal lymphopoietin (TSLP); assay: cell-based or functional assay
Sequence (Q969D9 29-159): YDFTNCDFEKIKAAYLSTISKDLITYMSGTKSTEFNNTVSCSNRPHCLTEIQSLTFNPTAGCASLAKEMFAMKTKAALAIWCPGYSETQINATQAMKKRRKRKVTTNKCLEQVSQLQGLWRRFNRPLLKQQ

Binder	Degrees of phosphorylation of STAT5 molecules in cells (%), 0.3 µM peptide mixed with TSLP 100 ng/mL, HMC-1 cells, flow cytometry; control with TSLP alone = 100%	Degrees of phosphorylation of STAT5 molecules in cells (%), 3 µM peptide mixed with TSLP 100 ng/mL, HMC-1 cells, flow cytometry; control with TSLP alone = 100%	Degrees of phosphorylation of STAT5 molecules in cells (%), 30 µM peptide mixed with TSLP 100 ng/mL, HMC-1 cells, flow cytometry; control with TSLP alone = 100%
H-ARQRASA-OH [Compound 4 (peptide derivative of Formula 4): H2N-Ala-Arg-Gln-Arg-Ala-Ser-Ala-COOH]	71%	68.3%	70.9%
Ac-ARQRASA-OH [Compound 5 (peptide derivative of Formula 5): CH3CONH-Ala-Arg-Gln-Arg-Ala-Ser-Ala-COOH]	86.1%	84.6%	77.1%
Ac-RQRASA-OH [Compound 3 (peptide derivative of Formula 3): CH3CONH-Arg-Gln-Arg-Ala-Ser-Ala-COOH]	73.5%	67.8%	66.9%
H-RQRASA-OH [Compound 2 (peptide derivative of Formula 2): H2N-Arg-Gln-Arg-Ala-Ser-Ala-COOH]	84.4%	77.9%	69.8%

— patent US20180148474A1 (KOREA UNIVERSITY RESEARCH AND BUSINESS FOUNDATION SEJONG …, published 2018)
